Data on 2 molecules can be found in article PMC10250241 (Nucleic Acids Research, 2023).

In general, stoichiometry N refers to a count of units in the complex or per binding partner.

B1: His6-Eco1 (enzyme, S. cerevisiae, UniProt P43605 1-281, looked up)
chain: MKARKSQRKAGSKPNLIQSKLQVNNGSKSNKIVKCDKCEMSYSSTSIEDRAIHEKYHTLQLHGRKWSPNWGSIVYTERNHSRTVHLSRSTGTITPLNSSPLKKSSPSITHQEEKIVYVRPDKSNGEVRAMTEIMTLVNNELNAPHDENVIWNSTTEEKGKAFVYIRNDRAVGIIIIENLYGGNGKTSSRGRWMVYDSRRLVQNVYPDFKIGISRIWVCRTARKLGIATKLIDVARENIVYGEVIPRYQVAWSQPTDSGGKLASKYNGIMHKSGKLLLPVYI
B2: mms22N-3D (S126, T127, S131D) (domain or fragment, S. cerevisiae, UniProt Q06164 1-300, looked up)
chain: MDVDEPNPIVISDSEATDEEISIIYEPEFNENYLWAEENVQEASRSQKIVTERLSLDSTAGESCTPSVVTDTQVTTGLRWSLRKRKAIQKMPYSLERIKHRQLLEGYDISSFDSISNQLTLPKNADDVIHDNDILLTKRTGKPLDEQKDVTIDSIKPENSSVQSQRYDSDEEIPKKRHRTFKDLDQDIVFQSGDSTEDEQDLASTNLQNTQNDEVIFRGRVLNVRTGYRGVLPRVAWEKSLQKQQSSKVTKRKTQLLNHKGVAKRKMNRSAHIEDEEQNLLNDLIAPDDELDIEENAPPD

Data set [1] deals with B2. As to the kind of experiment: SEC. In general terms: Size exclusion chromatography separates by hydrodynamic size, large species first.
The data set “SEC” concerns the molecule itself. As to the kind of experiment: SEC.

On to B1, for which, in data set [1], the binding result is reported as “binds”. For B2, in the data set “SEC”, the “stoichiometry N” value was found to be 2.
